B1: Ankyrin-1, residues 1405 to 1484; numbered along this chain, P16157 (parent)
chain: MKMAVISEHLGLSWAELARELQFSVEDINRIRVENPNSLLEQSVALLNLWVIREGQNANMENLYTALQSIDRGEIVNMLE

± gives the uncertainty stated by the source.

In the series the parent is B1. Kind of series: abundance fitness (aPCA) (normalised: wild type 0, dead -1); higher = more abundant; growth selection in yeast, the domain comes from the species named. The note with it: Homo sapiens.
Regarding MKMAVISEHLGLSWAELARELQFSMEDINRIRVENPNSLLEQSVALLNLWVIREGQNANMENLYTALQSIDRGEIVNMLE [V25M], the abundance fitness was -0.056 ± 0.12. For the variant MKMAVISEHLGLSWAELARELQFSYEDINRIRVENPNSLLEQSVALLNLWVIREGQNANMENLYTALQSIDRGEIVNMLE [V25Y], the abundance fitness is 0.143 ± 0.097.

MKMAVISEHLGLSWAELARELQFSQEDINRIRVENPNSLLEQSVALLNLWVIREGQNANMENLYTALQSIDRGEIVNMLE [V25Q]: the abundance fitness is -0.03 ± 0.066. The value for MKMAVISEHLGLSWAELARELQFSWEDINRIRVENPNSLLEQSVALLNLWVIREGQNANMENLYTALQSIDRGEIVNMLE [V25W] was -0.265 ± 0.069; that for MKMAVISEHLGLSWAELARELQFSNEDINRIRVENPNSLLEQSVALLNLWVIREGQNANMENLYTALQSIDRGEIVNMLE [V25N] was 0.114 ± 0.14. For MKMAVISEHLGLSWAELARELQFSTEDINRIRVENPNSLLEQSVALLNLWVIREGQNANMENLYTALQSIDRGEIVNMLE [V25T], the abundance fitness was -0.159 ± 0.079. In the case of MKMAVISEHLGLSWAELARELQFSPEDINRIRVENPNSLLEQSVALLNLWVIREGQNANMENLYTALQSIDRGEIVNMLE [V25P] it was 0.018 ± 0.076; in that of MKMAVISEHLGLSWAELARELQFSSEDINRIRVENPNSLLEQSVALLNLWVIREGQNANMENLYTALQSIDRGEIVNMLE [V25S], 0.002 ± 0.054. The value for MKMAVISEHLGLSWAELARELQFSREDINRIRVENPNSLLEQSVALLNLWVIREGQNANMENLYTALQSIDRGEIVNMLE [V25R] was -0.07 ± 0.046. In the case of MKMAVISEHLGLSWAELARELQFSVKDINRIRVENPNSLLEQSVALLNLWVIREGQNANMENLYTALQSIDRGEIVNMLE [E26K] it was -0.059 ± 0.073; in that of MKMAVISEHLGLSWAELARELQFSVYDINRIRVENPNSLLEQSVALLNLWVIREGQNANMENLYTALQSIDRGEIVNMLE [E26Y], 0.064 ± 0.15. Take MKMAVISEHLGLSWAELARELQFSVQDINRIRVENPNSLLEQSVALLNLWVIREGQNANMENLYTALQSIDRGEIVNMLE [E26Q]: the abundance fitness is -0.119 ± 0.098.

As to MKMAVISEHLGLSWAELARELQFSVWDINRIRVENPNSLLEQSVALLNLWVIREGQNANMENLYTALQSIDRGEIVNMLE [E26W], the abundance fitness was -0.197 ± 0.054.

With MKMAVISEHLGLSWAELARELQFSVFDINRIRVENPNSLLEQSVALLNLWVIREGQNANMENLYTALQSIDRGEIVNMLE [E26F], the abundance fitness is -0.369 ± 0.14. Regarding MKMAVISEHLGLSWAELARELQFSVTDINRIRVENPNSLLEQSVALLNLWVIREGQNANMENLYTALQSIDRGEIVNMLE [E26T], the abundance fitness worked out at 0.023 ± 0.094. The value for MKMAVISEHLGLSWAELARELQFSVGDINRIRVENPNSLLEQSVALLNLWVIREGQNANMENLYTALQSIDRGEIVNMLE [E26G] was -0.127 ± 0.039; that for MKMAVISEHLGLSWAELARELQFSVIDINRIRVENPNSLLEQSVALLNLWVIREGQNANMENLYTALQSIDRGEIVNMLE [E26I] was -0.303 ± 0.15. In the case of MKMAVISEHLGLSWAELARELQFSVHDINRIRVENPNSLLEQSVALLNLWVIREGQNANMENLYTALQSIDRGEIVNMLE [E26H] it was -0.113 ± 0.2. In the case of MKMAVISEHLGLSWAELARELQFSVADINRIRVENPNSLLEQSVALLNLWVIREGQNANMENLYTALQSIDRGEIVNMLE [E26A], the abundance fitness was -0.2 ± 0.066. The value for MKMAVISEHLGLSWAELARELQFSVNDINRIRVENPNSLLEQSVALLNLWVIREGQNANMENLYTALQSIDRGEIVNMLE [E26N] was 0.016 ± 0.15; that for MKMAVISEHLGLSWAELARELQFSVMDINRIRVENPNSLLEQSVALLNLWVIREGQNANMENLYTALQSIDRGEIVNMLE [E26M] was -0.189 ± 0.1; that for MKMAVISEHLGLSWAELARELQFSVLDINRIRVENPNSLLEQSVALLNLWVIREGQNANMENLYTALQSIDRGEIVNMLE [E26L] was -0.153 ± 0.053.

Regarding MKMAVISEHLGLSWAELARELQFSVSDINRIRVENPNSLLEQSVALLNLWVIREGQNANMENLYTALQSIDRGEIVNMLE [E26S], the abundance fitness is -0.071 ± 0.055.

For MKMAVISEHLGLSWAELARELQFSVVDINRIRVENPNSLLEQSVALLNLWVIREGQNANMENLYTALQSIDRGEIVNMLE [E26V], the abundance fitness was -0.233 ± 0.064.

In the case of MKMAVISEHLGLSWAELARELQFSVRDINRIRVENPNSLLEQSVALLNLWVIREGQNANMENLYTALQSIDRGEIVNMLE [E26R], the abundance fitness was -0.104 ± 0.051. In the case of MKMAVISEHLGLSWAELARELQFSVPDINRIRVENPNSLLEQSVALLNLWVIREGQNANMENLYTALQSIDRGEIVNMLE [E26P] it was -0.371 ± 0.089. In the case of MKMAVISEHLGLSWAELARELQFSVEKINRIRVENPNSLLEQSVALLNLWVIREGQNANMENLYTALQSIDRGEIVNMLE [D27K] it was -0.508 ± 0.15; in that of MKMAVISEHLGLSWAELARELQFSVEEINRIRVENPNSLLEQSVALLNLWVIREGQNANMENLYTALQSIDRGEIVNMLE [D27E], -0.08 ± 0.069. The value for MKMAVISEHLGLSWAELARELQFSVEIINRIRVENPNSLLEQSVALLNLWVIREGQNANMENLYTALQSIDRGEIVNMLE [D27I] was -0.043 ± 0.094.

As for MKMAVISEHLGLSWAELARELQFSVELINRIRVENPNSLLEQSVALLNLWVIREGQNANMENLYTALQSIDRGEIVNMLE [D27L], the abundance fitness was -0.429 ± 0.077. In the case of MKMAVISEHLGLSWAELARELQFSVEHINRIRVENPNSLLEQSVALLNLWVIREGQNANMENLYTALQSIDRGEIVNMLE [D27H], the abundance fitness is -0.121 ± 0.17. In the case of MKMAVISEHLGLSWAELARELQFSVEFINRIRVENPNSLLEQSVALLNLWVIREGQNANMENLYTALQSIDRGEIVNMLE [D27F] it was -0.436 ± 0.2. The value for MKMAVISEHLGLSWAELARELQFSVEGINRIRVENPNSLLEQSVALLNLWVIREGQNANMENLYTALQSIDRGEIVNMLE [D27G] was -0.573 ± 0.081; that for MKMAVISEHLGLSWAELARELQFSVECINRIRVENPNSLLEQSVALLNLWVIREGQNANMENLYTALQSIDRGEIVNMLE [D27C] was -0.063 ± 0.15. As to MKMAVISEHLGLSWAELARELQFSVEAINRIRVENPNSLLEQSVALLNLWVIREGQNANMENLYTALQSIDRGEIVNMLE [D27A], the abundance fitness was -0.071 ± 0.069.

Values taken from the Human Domainome abundance scans (Beltran et al. 2025).
